Earlier results as cited in patent US20250302913A1, “LACRIPEP PROMOTES NEUROREGENERATION AND MAINTAINS EPITHELIAL PROGENITOR CELL IDENTITY” (The Regents of The University of California, priority 2022, published 2025).

T1: syndecan-1 (SDC1) (Homo sapiens, UniProt P18827)
T1 sequence (P18827 23-310): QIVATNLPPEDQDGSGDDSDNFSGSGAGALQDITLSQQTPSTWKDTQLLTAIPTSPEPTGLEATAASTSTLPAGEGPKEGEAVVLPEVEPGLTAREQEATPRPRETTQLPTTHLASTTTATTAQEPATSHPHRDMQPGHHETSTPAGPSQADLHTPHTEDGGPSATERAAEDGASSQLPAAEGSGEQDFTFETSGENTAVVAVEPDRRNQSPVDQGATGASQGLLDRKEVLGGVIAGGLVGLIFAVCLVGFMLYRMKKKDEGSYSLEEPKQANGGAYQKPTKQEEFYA


Experiments:
rabbit corneas = conditions: after refractive surgery; cited from earlier work
human patients = conditions: controlled clinical studies; cited from earlier work
healthy rabbit model = conditions: cited from earlier work
syndecan-1 (SDC1) = molecular target: T1, syndecan-1 (SDC1); conditions: cited from earlier work
corneal epithelial cell = conditions: in vitro; cited from earlier work

Molecule | reinnervation of corneas (rabbit corneas) | corneal sensitivity or visual acuity versus vehicle (artificial tears) (human patients) | basal tearing (healthy rabbit model) | binding and activation of syndecan-1 (syndecan-1 (SDC1)) | corneal epithelial cell proliferation (corneal epithelial cell)
cenegermin: recombinant nerve growth factor | stimulated the reinnervation of rabbit corneas | failed to show significant benefit over vehicle | – | – | –
Lacritin: endogenous glycoprotein initially identified in tears (protein, listed as Homo sapiens, Description of sequence: Lacritin, endogenous glycoprotein initially identified in tears) MKFTTLLFLAAVAGALVYAEDASSDSTGADPAQEAGTSKPNEEISGPAEPASPPETTTTAQETSAAAVQGTAKVTSSRQELNPLKSIVEKSILLTEQALAKAGKGMHGGVPGGKQFIENGSEFAQKLLKKFSLLKPWA | – | – | promote basal tearing | bind and activate | promote corneal epithelial cell proliferation
